Among the data in paper PMC6612559, “Functional characterization of a novel arachidonic acid 12S‐lipoxygenase in the halotolerant bacterium Myxococcus fulvus exhibiting complex social living patterns” (MicrobiologyOpen, 2018) are Km and kcat values, retold here.

Substrate in the data set: CC/C=C\C/C=C\C/C=C\C/C=C\C/C=C\CCCC(=O)O
Nature of the data set: purified protein. The conditions noted are these: PBS, no detergent; O2 co-substrate; fit over all substrate concentrations up to 200 µM. Type of data set: biochemical, Myxococcus fulvus.

B1: MF-LOX1 (Myxococcus fulvus LOX1) (Myxococcus fulvus) (protein)
chain: MTVEYKLRIRTSTKLGAGTDANISVVLVGTRGESGPHVLDKPFHNDFEAGAEDVYSVQASDDVGALLLLRFGNTGGIAADWLLDHAWVTAGERQWSFPFFRWVRAGATVDVLEGTAKLARHAGCEREATARRELLEARRRMYPWRPAEATEGLPGALDLSEAQPLPKDELYRGLTEGSYEVVIARTLAAIKLHLPLLSKAWNGLVDIFDFFKGLEVPRLAPRWQDDLEFARQAVQGINPLHITLIPQLPQGMPLTDEDVKGVLSPGTTLARALDSKRIFLLDFDILEDIPMYRKVDEDGVEERRWAPAARCLLYLDDLRQLRPLAIQLGRDGGKDPVFTPNDDTYDWLAAKIYLRCSEGNTHQMVAHALRTHFVAEPFVMATMRNLPDPHPVYKLLRRHFRYTLAINEGARKGLLAAGGVFDDFIATGGPDKGHLQLGKKGYQRWKLTDNRPREDLEHRGVLDPAVLPYYPYRDDALPLWDALEEYVGGVLRYFYPTDADLEGDTEMQHWWKDLTEHGLPVDKLPCRELSRVDDLVDILTTVVFTVSVQHAAVNYLQYEHYAFVPNAPLCMRREPPRQKGTLCAEDLPEMIPSRSQTLWQVAIGRALSSFGDDEEYLLNEGGWREEYFQEPQVRALRERFEQRLRAQRDVVAARNAGAQVPYTVLSPDRIPCGITV
notes: full length, native protein 676 residues; N-terminal hexa-His tag kept, 32 extra N-terminal residues (pET28b); E. coli, Ni-agarose
Broadly, the Km is the concentration of substrate that gives half-maximal velocity. With B1, the Km is 70 µM and the kcat entry was “(3.1 ± 1.2) x 10^−2 s^-1”.
